The numbers were not newly measured in PMC4059260, which cites them from elsewhere.

Like-named read-outs stand apart in the source and are kept apart here.

The target of data set [1] is VEGF (Homo sapiens) (UniProt P15692).
The target is the same in data set [2]. This is another data set of the same source.

UniProt P15692, sequence (P15692 whole entry): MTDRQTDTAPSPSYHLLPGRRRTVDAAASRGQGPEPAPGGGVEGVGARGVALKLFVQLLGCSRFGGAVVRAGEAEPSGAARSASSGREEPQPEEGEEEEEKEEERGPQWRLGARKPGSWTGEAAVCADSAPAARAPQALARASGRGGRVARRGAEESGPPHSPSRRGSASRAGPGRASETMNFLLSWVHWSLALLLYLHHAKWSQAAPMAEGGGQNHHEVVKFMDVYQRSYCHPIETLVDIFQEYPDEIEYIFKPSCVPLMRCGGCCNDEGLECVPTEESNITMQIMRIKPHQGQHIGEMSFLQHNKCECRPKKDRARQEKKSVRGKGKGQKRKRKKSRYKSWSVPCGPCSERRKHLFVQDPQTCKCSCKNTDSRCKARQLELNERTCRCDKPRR

“alpha-2-macroglobulin (from UniProt P01023)”: the dissociation constant (Kd) in the data set with VEGF (Homo sapiens) [1] was 420 nM.

Turning to sFlt-1 (from UniProt P17948), the Kd in the data set with VEGF (Homo sapiens) [2] is 0.001 nM.
